Laboratory results taken from paper PMC6312279, “Characterization of a protozoan Phosducin-like protein-3 (PhLP-3) reveals conserved redox activity” (PLoS ONE, 2018).

Columns and labels:
PbPhLP-3 = target: T1, PbPhLP-3 (Plasmodium berghei, UniProt A0A509AN16); experiment: thioredoxin-coupled NADPH oxidation assay, […] nm; assay type: biochemical; details: PbTrxR/PbTrx-1/NADPH as reductant, pH 7.4, 25 °C; linear, non-saturating up to millimolar TBHP, authors suggest non-enzymatic mechanism
T1 construct: gene PBANKA_1204800
T1 sequence (A0A509AN16 1-193): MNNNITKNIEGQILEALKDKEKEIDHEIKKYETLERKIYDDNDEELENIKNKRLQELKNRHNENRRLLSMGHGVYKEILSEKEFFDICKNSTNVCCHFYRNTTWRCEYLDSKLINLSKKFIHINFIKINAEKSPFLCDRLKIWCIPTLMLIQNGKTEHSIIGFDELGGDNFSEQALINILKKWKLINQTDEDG

HsPhLP-3 = target: T2, HsPhLP-3 (Homo sapiens, UniProt O14530); experiment: thioredoxin-coupled NADPH oxidation assay, […] nm; assay type: biochemical; details: thioredoxin system/NADPH as reductant, millimolar TBHP needed; data not shown separately
T2 construct: gene TXNDC9
T2 sequence (O14530 1-226): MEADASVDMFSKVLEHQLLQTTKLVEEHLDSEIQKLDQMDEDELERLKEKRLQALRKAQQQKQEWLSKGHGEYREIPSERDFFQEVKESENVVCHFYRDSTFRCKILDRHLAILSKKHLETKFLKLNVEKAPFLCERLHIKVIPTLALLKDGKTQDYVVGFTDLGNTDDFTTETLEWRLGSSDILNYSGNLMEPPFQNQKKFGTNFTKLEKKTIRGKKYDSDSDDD

[1] = target: Plasmodium berghei Phosducin-like protein-3 (PbPhLP-3) (Plasmodium berghei)
[2] = target: T3, human PhLP-3 (HsPhLP-3; thioredoxin-domain containing protein 9, TXNDC9) (human) (UniProt O14530)
T3 sequence: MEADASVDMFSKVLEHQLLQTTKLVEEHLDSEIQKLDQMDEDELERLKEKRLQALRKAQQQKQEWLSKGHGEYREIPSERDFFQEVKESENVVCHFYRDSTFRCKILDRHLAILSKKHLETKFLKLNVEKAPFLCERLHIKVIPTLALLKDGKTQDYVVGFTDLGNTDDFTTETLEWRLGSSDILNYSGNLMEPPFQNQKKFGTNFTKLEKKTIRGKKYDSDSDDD

Molecule: CC(C)(C)OO [TBHP]
- thioredoxin-coupled NADPH oxidation assay, 340 nm (PbPhLP-3): reduction of the compound was observed in the presence of PbPhLP-3
- thioredoxin-coupled NADPH oxidation assay, 340 nm (HsPhLP-3): both PhLP-3 proteins investigated here reduce the oxidative compound TBHP

Molecule: Plasmodium berghei thioredoxin-1 (PbTrx-1) (natural protein)
- KM for PbTrx-1 in the Trx-reduction assay (initial velocities of NADPH oxidation at PbTrx-1 0.5–50 μM) [1]: 5.82 µM
- Vmax in the Trx-reduction assay (initial velocities of NADPH oxidation at PbTrx-1 0.5–50 μM) [1]: 10.1 µM/min
- kcat in the Trx-reduction assay (initial velocities of NADPH oxidation at PbTrx-1 0.5–50 μM) [1]: 0.0167 s⁻¹
- kcat/KM (rate constant) in the Trx-reduction assay [1]: 2830 M⁻¹ s⁻¹

B1: human Trx-1 (HsTrx-1) (natural protein)
chain: MVKQIESKTAFQEALDAAGDKLVVVDFSATWCGPCKMIKPFFHSLSEKYSNVIFLEVDVDDCQDVASECEVKCMPTFQFFKKGQKVGEFSGANKEKLEATINELV
- KM in the Trx-reduction assay with PbTrxR, HsTrx-1 and HsPhLP-3 [2]: 6.53 µM
- Vmax in the Trx-reduction assay with PbTrxR, HsTrx-1 and HsPhLP-3 [2]: 12.6 µM/min
- kcat in the Trx-reduction assay with PbTrxR, HsTrx-1 and HsPhLP-3 [2]: 0.021 s⁻¹
- kcat/KM (rate constant) in the Trx-reduction assay with PbTrxR, HsTrx-1 and HsPhLP-3 [2]: 3170 M⁻¹ s⁻¹
